In article PMC3856062 one finds FRET efficiency and distance between donor and receptor (FRET) data, which are given here for one substance.

In the assay the target is CFP-SelM′ (human) (UniProt Q8WWX9). The experiment in a line: FRET or BRET; acceptor photobleaching FRET in living HeLa cells cotransfected with CFP (donor) and YFP (receptor) plasmids; region of interest bleached at 515 nm for 20 s; laser confocal microscope. On the technique in general: BRET reads energy transfer from a luciferase to a nearby fluorophore.
Chain of UniProt Q8WWX9 (Q8WWX9 28-145): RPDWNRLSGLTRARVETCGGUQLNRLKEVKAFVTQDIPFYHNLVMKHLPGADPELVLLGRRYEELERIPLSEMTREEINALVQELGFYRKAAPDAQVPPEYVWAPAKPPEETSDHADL

Consider “YFP-Gal-1 (from UniProt P09382 1-135) (natural protein)”, for which the FRET efficiency worked out at 27.3%; the distance between donor and receptor (FRET) worked out at 6.35 nm.
